Measured values reported in US20090029924A1.

These substances were tested against Recombinant human furin (human) (UniProt P09958) (assay: furin, Pyr-RTKR-AMC cleavage).
Chain of Recombinant human furin (human) (P09958 108-714 limits assumed): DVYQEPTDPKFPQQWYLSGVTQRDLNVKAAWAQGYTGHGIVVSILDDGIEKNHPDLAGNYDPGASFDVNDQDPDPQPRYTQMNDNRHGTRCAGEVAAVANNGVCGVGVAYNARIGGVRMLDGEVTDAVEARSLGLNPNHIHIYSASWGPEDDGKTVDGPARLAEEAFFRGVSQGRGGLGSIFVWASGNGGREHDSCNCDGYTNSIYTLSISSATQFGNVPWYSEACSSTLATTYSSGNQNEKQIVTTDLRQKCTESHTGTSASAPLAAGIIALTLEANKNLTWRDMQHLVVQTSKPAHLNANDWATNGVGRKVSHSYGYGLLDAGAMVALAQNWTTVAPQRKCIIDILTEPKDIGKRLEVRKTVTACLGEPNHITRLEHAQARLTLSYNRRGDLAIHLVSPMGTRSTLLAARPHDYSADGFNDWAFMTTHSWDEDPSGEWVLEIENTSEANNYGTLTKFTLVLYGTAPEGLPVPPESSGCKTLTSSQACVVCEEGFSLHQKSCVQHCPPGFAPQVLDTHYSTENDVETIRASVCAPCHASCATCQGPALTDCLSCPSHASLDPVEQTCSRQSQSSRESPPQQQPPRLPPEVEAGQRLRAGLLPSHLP

Substance	Ki
TPQR1RRRKKRG (peptide)	> 100 nM
TPQR2RRRKKRG (peptide)	> 100 nM
TPQR3RRRKKRG (peptide)	> 100 nM
TPQR4RRRKKRG (peptide)	> 100 nM
TPQR5RRRKKRG (peptide)	> 100 nM
TPQR6RRRKKRG (peptide)	> 100 nM
TPQR7RRRKKRG (peptide)	> 100 nM
TPQR8RRRKKRG (peptide)	> 100 nM
TPQReRRRKKRG (peptide)	> 100 nM
TPQRkRRRKKRG (peptide)	> 100 nM
TPQRrRRRKKRG (peptide)	> 100 nM
